Experimental data reported in article PMC8485325, “Penetrating the Blood-Brain Barrier with New Peptide–Porphyrin Conjugates Having anti-HIV Activity” (Bioconjugate Chemistry, 2021).
Ends that are not written are not given here.

Experiments:
bEnd.3 cell monolayers [1] = test: In vitro BBB translocation assay (bEnd.3 transwell model)
From the text: Assessment of PPC efficacy in BBB translocation was done in a transwell setup (Figure 4A) using bEnd.3 cell monolayers.[44] The bEnd.3 in vitro BBB model consists of a monolayer of cells expressing a range of essential BBB transporters, also bearing the low permeability characteristic of the BBB, suitable for this study.[44]−[46]
(§1) Figure 4 PPCs translocation across a bEnd.3 in vitro BBB model. (A) bEnd.3 in vitro BBB model transwell system. The insert, or apex, corresponds to the blood side, while the base (bottom chamber) corresponds to the brain side. (B) After formation of a monolayer, 10 μM of each conjugate was added to the apical side of the tissue culture inserts. After incubation for 24 h, samples from the basolateral side were collected, and the percentage of translocation of each conjugate (black) was calculated. FD4 permeability (gray) was measured to determine monolayer integrity post-PPCs translocation.
An in vitro BBB model consisting of endothelial cells growing on the apical side of a porous membrane was used.[46] bEnd.3 cells (ATTCC-CRL2299) were cultured as a monolayer on T-flasks in DMEM supplemented with 10% fetal bovine serum (FBS), 1% penicillin/streptomycin. Cells were grown in a humidified atmosphere of 5% CO2 at 37 °C (MCO-18AIC (UV), Sanyo, Japan) with the medium changed every other day. Cells were allowed to grow until confluence in a culture T-flask, and then carefully harvested with trypsin-EDTA and seeded (3500 cells/well) onto fibronectin-coated tissue culture 24-well inserts (transparent polyester membrane with 1.0 μm pores) (BD Falcon, USA). The medium was changed every other day for 10 days, after which cells were washed twice with 1× PBS and once with DMEM medium without phenol red. Next, conjugates diluted in DMEM without phenol red to a final concentration of 10 μM were added to the apical side of the in vitro BBB model (Figure 4A). Experiments were performed on different days using independently grown cell cultures.
The translocation of conjugates was determined by fluorescence intensity (λexc = 380 nm and λem = 625 nm for MP conjugates, and λexc = 380 nm and λem = 675 nm for PP conjugates). P3-CF and P5-CF, peptides labeled with 5(6)-Carboxyfluorescein (CF), were used as positive translocation controls (λexc = 492 nm and λem = 517 nm). After 24 h incubation, samples from the apical and basolateral side were collected and analyzed. Fluorescence was measured using a Varioskan Lux plate reader (Thermo Scientific, MA, USA). The percentage (%) of translocation was calculated using the following equation: [drawing 1] 1 where Fi is the recovered fluorescence intensity, Fcells is the recovered fluorescence intensity from cells without the conjugate, and Fconjugate is the fluorescence intensity of total peptide initially added to the transwell apical side.

bEnd.3 cell monolayers [2] = tested on: bEnd.3 cell monolayers
Experimental: as §1
After 24 h incubation with conjugates, an in vitro integrity assay was performed.[19] Briefly, cells were washed twice with PBS and once with DMEM medium without phenol red. Then, previously diluted 4 kDa fluorescein isothiocyanate-dextran (FD4) (Sigma-Aldrich, Spain) in DMEM without phenol red to an absorbance of 0.1 was added to the apical side and incubated for 2 h. Samples were collected from the apical and basolateral side, and fluorescence intensity was measured with λext = 493 nm and λem = 520 nm, using a Varioskan Lux plate reader. The integrity of the barrier was determined as follows: [drawing 2] 2 where Fi is the recovered fluorescence intensity, Fcells is the recovered fluorescence intensity from cells without FD4 incubation, FFD4 is the fluorescence intensity of total FD4 initially added to the transwell apical side, and FMedium is the fluorescence intensity of DMEM medium without phenol red.

human erythrocytes = test: Hemolysis assay; assay type: cell-based
Experimental: Plates were incubated for 1 h at 37 °C with 100 rpm stirring, then centrifuged for 5 min at 4000 rpm, 4 °C, and supernatants were transferred to a 96-well flat-bottom polystyrene plate (Corning). Hemolysis was assessed by hemoglobin (Hb) release, measured by absorbance at 415 nm in a Varioskan LUXTM microplate reader (Thermo Fisher Scientific, Inc.). As porphyrin and Hb spectra are partially overlapping, to exclude porphyrin interference in Hb quantification a blank reading of each PPC (no hRBCs, TN buffer +1% DMSO) was subtracted from each measurement. TN buffer (+1% DMSO, no conjugate) and hRBCs with 1% Triton X-100 were used as negative and positive controls, respectively. Hemolysis (%) was determined using the following equation: [drawing 6] 6 where Abstreated is the absorbance of hRBC treated with the conjugates, Absconjugate is the absorbance from each conjugate concentration without hRBCs, AbsTriton is the absorbance of Triton X-100 treated hRBCs, and Absbuffer is the absorbance of TN buffer alone. HC50 values were determined by GraphPad Prism 8 software using a log(inhibitor) vs normalized response (variable slope). Experiments were performed using 3 different blood donors.

Substance | BBB translocation (in words) (bEnd.3 cell monolayers [1]) | % Base (RFI), FD4 Permeability (monolayer integrity post-translocation) (bEnd.3 cell monolayers [2]) [%] | Hemolytic activity (in words) (human erythrocytes)
MP-P5: mesoporphyrin IX coupled to the N-terminal amino group of peptide P5 (SGTQEEY-amide) ({mesoporphyrin IX}-SGTQEEY-NH2) | able to effectively pass the BBB | 9.4 | totally lacked hemolytic activity
P4-MP: mesoporphyrin IX coupled to the C-terminal Lys side chain of peptide P4 (AGILKRWK-amide) (AGILKRWK(mesoporphyrin IX)-NH2) | able to effectively pass the BBB | 15.3 | totally lacked hemolytic activity
